According to patent US20220267443A1 (AGENUS, published 2022):

Tests used:
[1] = molecular target: T1, human FcγRIIB expressed on CHO cells (human, UniProt P31994 43-310); experiment: flow cytometry on CHO cells expressing human FcγRIIB
T1 construct: whole, on cells; also called rCHO-huFcγRIIB+
T1 sequence (looked up): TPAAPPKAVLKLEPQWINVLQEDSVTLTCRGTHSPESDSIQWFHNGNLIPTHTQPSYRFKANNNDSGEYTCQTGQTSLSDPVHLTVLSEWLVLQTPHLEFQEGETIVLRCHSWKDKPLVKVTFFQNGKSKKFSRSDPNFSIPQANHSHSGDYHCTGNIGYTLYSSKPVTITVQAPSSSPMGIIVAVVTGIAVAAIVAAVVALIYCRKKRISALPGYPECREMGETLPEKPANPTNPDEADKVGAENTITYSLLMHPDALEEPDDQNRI
Method: (§1) The binding of anti-CTLA-4 antibodies to human FcγRIIA, FcγRIIB, and FcγRIIIA expressed on the surface of CHO cells was measured by flow cytometry. Briefly, CHO cells were transfected with cDNA encoding for human FcγRIIA^H131, FcγRIIB, or FcγRIIIA^V158, generating the following CHO cell lines: rCHO-huFcγRIIA⁺, rCHO-huFcγRIIB⁺, and rCHO-huFcγRIIIA⁺. Binding of a dose titration of antibodies ranging from 0.0056-1000 μg/ml was performed and the primary antibodies were detected with an anti-human F(ab′) secondary antibody conjugated with Phycoerythrin (PE) (Jackson Immune Research). The samples were tested by flow cytometry and the PE mean fluorescence intensity (MFI) values were analyzed and used to generate binding curves. The antibodies tested were AGEN1884w, AGEN2041w, a reference anti-CTLA-4 IgG₁ antibody, and an IgG₁ isotype control antibody. AGEN1884w produced in two different growth media was used in this study: the growth media CD FortiCHO™ from Life Technologies Inc./Thermo (AGEN1884w-FortiCHO) and the growth media PowerCHO™ 2 from Lonza (AGEN1884w-PowerCHO). The reference anti-CTLA-4 IgG₁ antibody contains a different IgG₁ allotype from the one in AGEN1884w. The IgG₁ isotype control antibody was only tested at 1000 μg/ml.

[2] = molecular target: T2, human FcγRIIIA^V158 expressed on cells (human, UniProt P08637 17-254); experiment: flow cytometry on CHO cells expressing human FcγRIIIA^V158
T2 construct: whole, on cells; also called rCHO-huFcγRIIIA+
Method: as §1

[3] = molecular target: T3, recombinant cynomolgus CTLA-4-Fc (Sino Biological, #90213-C02H) (cynomolgus, UniProt P16410 36-161 (human entry)); experiment: suspension array (Luminex) selectivity assay as in Section 6.1.3
T3 construct: Bought protein; also called recombinant cynomolgus (rc) CTLA-4; not shown: Fc part of the bought fusion protein

[4] = molecular target: T4, rhCD28-Fc (R&D, #342-CD-200) (human, UniProt P10747 19-152); experiment: as above
T4 construct: Bought protein; also called recombinant human CD28; not shown: Fc part of the bought fusion protein

[5] = molecular target: T5, rhICOS-Fc (R&D, #169-CS-050) (human, UniProt Q9Y6W8 21-141); experiment: as above
T5 construct: Bought protein; also called recombinant human ICOS; not shown: Fc part of the bought fusion protein
T5 sequence: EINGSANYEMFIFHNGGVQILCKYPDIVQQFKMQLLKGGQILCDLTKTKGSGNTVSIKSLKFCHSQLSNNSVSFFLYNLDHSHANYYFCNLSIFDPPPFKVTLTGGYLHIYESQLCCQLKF

[6] = molecular target: T6, rhBTLA-Fc (Sino Biological, #11896-H02H) (human, UniProt Q7Z6A9 31-157); experiment: as above
T6 construct: Bought protein; also called recombinant human BTLA; not shown: Fc part of the bought fusion protein
T6 sequence: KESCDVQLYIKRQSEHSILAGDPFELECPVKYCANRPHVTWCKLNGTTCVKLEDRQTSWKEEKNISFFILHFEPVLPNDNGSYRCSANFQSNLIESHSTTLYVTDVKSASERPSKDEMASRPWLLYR

[7] = molecular target: T7, rhPD-1-Fc (R&D Systems, #1086-PD) (human, UniProt Q15116 25-167); experiment: as above
T7 construct: Bought protein; also called recombinant human PD-1; not shown: Fc part of the bought fusion protein
T7 sequence (Q15116 25-167 limits assumed): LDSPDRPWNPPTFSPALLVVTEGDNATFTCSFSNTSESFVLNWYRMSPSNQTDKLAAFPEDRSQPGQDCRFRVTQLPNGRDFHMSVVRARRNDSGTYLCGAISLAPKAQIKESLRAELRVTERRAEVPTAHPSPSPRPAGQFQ

T2 sequence (P08637 17-254 F176V limits assumed): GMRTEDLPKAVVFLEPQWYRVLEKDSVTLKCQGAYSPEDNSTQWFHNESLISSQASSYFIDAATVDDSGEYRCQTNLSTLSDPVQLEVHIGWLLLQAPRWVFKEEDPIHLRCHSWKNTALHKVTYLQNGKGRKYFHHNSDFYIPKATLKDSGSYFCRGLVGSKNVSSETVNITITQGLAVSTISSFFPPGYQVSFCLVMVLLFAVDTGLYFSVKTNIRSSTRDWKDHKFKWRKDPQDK
T3 sequence (P16410 other isoform, or with tags, fused parts or gaps C02H C02H limits assumed): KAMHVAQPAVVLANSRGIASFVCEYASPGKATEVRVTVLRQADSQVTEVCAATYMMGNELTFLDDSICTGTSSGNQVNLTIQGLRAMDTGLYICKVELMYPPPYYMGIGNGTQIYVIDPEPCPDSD
T4 sequence (P10747 19-152 limits assumed): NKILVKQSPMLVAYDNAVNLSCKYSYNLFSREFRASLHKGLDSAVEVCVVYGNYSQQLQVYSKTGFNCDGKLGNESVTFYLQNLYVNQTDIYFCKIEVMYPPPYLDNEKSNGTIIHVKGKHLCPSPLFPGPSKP

- binding result [1]: binds
- binding result [2]: binds
- binding result [3]: binds
- binding result [4]: no binding
- binding result [5]: no binding
- binding result [6]: no binding
- binding result [7]: no binding
B1: AGEN2041w (antibody, human IgG2, kappa)
heavy: EVQLVESGGGLVKPGGSLRLSCAASGFTFSSYSMNWVRQAPGKGLEWVSSISSSSSYIYYADSVKGRFTISRDNAKNSLYLQMNSLRAEDTAVYYCARVGLMGPFDIWGQGTMVTVSSASTKGPSVFPLAPCSRSTSESTAALGCLVKDYFPEPVTVSWNSGALTSGVHTFPAVLQSSGLYSLSSVVTVPSSNFGTQTYTCNVDHKPSNTKVDKTVERKCCVECPPCPAPPVAGPSVFLFPPKPKDTLMISRTPEVTCVVVDVSHEDPEVQFNWYVDGVEVHNAKTKPREEQFNSTFRVVSVLTVVHQDWLNGKEYKCKVSNKGLPAPIEKTISKTKGQPREPQVYTLPPSREEMTKNQVSLTCLVKGFYPSDIAVEWESNGQPENNYKTTPPMLDSDGSFFLYSKLTVDKSRWQQGNVFSCSVMHEALHNHYTQKSLSLSPG
light: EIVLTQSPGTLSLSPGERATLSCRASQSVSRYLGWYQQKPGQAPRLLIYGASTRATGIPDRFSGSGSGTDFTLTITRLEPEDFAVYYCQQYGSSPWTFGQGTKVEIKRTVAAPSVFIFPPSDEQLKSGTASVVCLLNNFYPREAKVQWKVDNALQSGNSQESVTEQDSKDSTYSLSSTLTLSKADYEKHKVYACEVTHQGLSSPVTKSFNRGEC
notes: Human IgG2 version of AGEN1884w
